Patent US20040265808A1, “Genes involved in osteogenesis, and methods of use” (priority 2001, published 2004)

Tests used:
Assay type in all cases: cell-based, mouse
[1] = system: pluripotent cells C3H10T1/2, ST2 and C2C12; assay: Wnt-frizzled pathway and osteoblast differentiation, alkaline phosphatase measurement in pluripotent cells; settings: for effect on the activity of Wnt proteins (Wnt1, Wnt2, Wnt3a), alkaline phosphatase measurement: C3H10T1/2; for effect on BMP-2: C3H10T1/2 cells
Excerpt: FIGS. 1 to 7 represents the relationship between members of the Wnt-frizzled family, with bone formation, by measurement of alkaline phosphatase (ALP).
The inventors have also tested the capacity of Fz1 to interact with Wnt proteins and thus affect osteoblast differentiation. Overexpression of Fz1 decreased the activity of Wnt1, Wnt2 and Wnt3a in pluripotent cells C3H10T1/2 as determined by the alkaline phosphatase measurement (FIG. 4). However the expression of Fz3 or Fz4 increased the activity of Wnt proteins in the differentiation process (FIG. 6). […] This indicate that Frizzled may negatively or positively cooperate with their ligand proteins, Wnt, in these bone-related cells.
(§1) Mouse cell lines representing different stages of osteoblastic differentiation, C2C12, C2H10T1/2, ST2 and MC3T3-E1, were grown in the presence of agents capable of the induction of osteoblastic differentiation in vitro such as BMP2 and Sonic Hedgehog or in the presence of TGF beta (negative control) or with serum alone. Primary cells derived from mouse calvaria were also cultured for 0, 2, 7 14 and 21 days and RNA prepared for each time point. For example, C3H10T ½ and C2C12 can be obtained from the ATCC (Manassas, Va., USA) under the collection numbers CCL-226 and CRL-1772, respectively.

[2] = system: C3H10T1/2 cells; assay: Transient over-expression of candidate genes, cooperation with BMP2 by measurement of alkaline phosphatase; parameters: key: +: positive or negative cooperation with BMP2; −: positive or negative cooperation with BMP2; settings: for Validation in vitro (coop over BMP2) C3H10T1/2: alkaline phosphatase
Protocol: as §1
(§2) The candidates genes are cloned in expression vectors and their ability to express a protein of the expected size verified by COS cells transient transfection. The genes are then transfected in C3H10T1/2 cells and/or C2C12 cells (transient over-expression) and positive or negative cooperation with BMP2 is evaluated by the measurement of alkaline phosphatase (enzymatic assay and TaqMan) at 48 hours. Controls of positive cooperation, recombinant Sonic Hedgehog, or negative cooperation, recombinant Noggin, are included in each test.

[3] = system: C2C12 cells; assay: as above; parameters: key: +: positive or negative cooperation with BMP2; −: positive or negative cooperation with BMP2
Protocol: as §1, §2

For “SEQ ID No 37: candidate gene, receptor tyrosine kinase Ufo/Ax1, overexpressed in cells”, the “BMP2 induced Alkaline phosphatase activity” value ([1]; overexpressed in C2C12 or C3H10T1/2 cells) was “repress”.

With Wnt3a the “production of alkaline phosphatase (osteoblast differentiation)” value ([1]; overexpression, C3H10T1/2, ST2 and C2C12) was “increases”.

With “Fz4: frizzled receptor expressed in C3H10T1/2 cells” the “effect on the activity of Wnt proteins (Wnt1, Wnt2, Wnt3a), alkaline phosphatase measurement” value ([1]; overexpression) was “increased”.

In the case of “TCF4: TCF protein, transcription factor of the Wnt pathway”, the “effect on BMP-2” value [1] is reported as “inhibitors”.

In the case of “Fz3: frizzled receptor expressed in C3H10T1/2 cells”, the “effect on the activity of Wnt proteins (Wnt1, Wnt2, Wnt3a), alkaline phosphatase measurement” value ([1]; overexpression) is reported as “increased”.

For “TCF3: TCF protein, transcription factor of the Wnt pathway”, the “effect on BMP-2” value [1] was “inhibitors”.

For `O=c1cc(-c2ccc(O)cc2)oc2cc(O)cc(O)c12` [Apigenin, reference compound], the “activity of BMP-2 and Shh” value ([1]; C3H10T1/2, ST2 and C2C12) was “able to block”.

B1: 67 (nucleic acid, listed as Mus musculus)
chain: AATCTAGAATGGCGTTGACTGCGGATGTGGCAGGACCAGCACCTTGGGGCTTCCGAATTAGCGGGGGCAGAGATTTCCACACACCCATCATTGTGACCAAGGTCACAGAGCGGGGCAAGGCTGAAGCAGCTGATCTCCGGCCTGGCGACATCATTGTGGCCATCAATGGACAGAGTGCAGAGAACATGCTACACGCGGAGGCCCAAAGCAAGATCCGACAGAGCGCCTCACCCCTAAGACTGCAGCTGGACCGGTCCCAAACAGCCTCTCCTGGGCAGACCAATGGGGAGGGCTCCTTGGAAGTGCTGGCAACCAGATTCCAGGGCTCCCTGAGGACACACCGTGACAGCCAGTCTTCCCAGAGGTCTGCCTGCTTCAGCCCAGTCTCTCTCAGCCCCAGGCCTTGCAGCCCCTTCTCCACCCCACCCCCTACCAGCCCAGTTGCCCTTTCTAAAGAGGATATGATTGGCTGTAGTTTCCAGAGTCTGACACACTCTCCAGGCCTTGCTGCTGCTCACCACTTGACCTACCCTGGCCACCCCACCAGCCAACAGGCCGGCCACAGCAGCCCAAGCGACTCCGCAGTGAGGGTGCTGCTCCATTCCCCAGGACGGCCCTCCAGCCCTAGGTTCAGCAGTTTGGATCTGGAGGAAGACTCAGAGGTGTTCAAGATGCTGCAGGAGAACCGCCAGGGACGGGCCGCCCCAAGGCAGTCCAGCTCTTTTCGACTCTTACAGGAAGCCTTGGAGGCTGAGGAGAGAGGTGGCACACCTGCCTTTGTGCCCAGCTCGCTGAGCTCCCAGGCTTCCTTGCCCACCTCCAGGGCCTTGGCCACTCCACCCAAGCTCCACACCTGTGAGAAATGCAGCGTCAACATCTCGAACCAGGCGGTCCGCATCCAGGAGGGGAGGTACCGACACCCTGGCTGCTACACTTGCGCAGACTGTGGGCTGAACCTGAAGATGCGCGGCCACTTCTGGGTGGGCAATGAGTTGTACTGCGAGAAGCATGCCCGCCAGCGCTACTCTATGCCTGGAACTCTCAACTCTCGAGCCACTAGTAA
In the case of B1, the “Validation in vitro (coop over BMP2) C3H10T1/2” value [2] is reported as “−”.

B2: 42 (nucleic acid, listed as Mus musculus)
chain: CGATCGATATGGCAGACACGTTTTCGCTTAACGATGCCTTAGCTGGCTCTGGAAACCCAAACCCTCAAGGATATCCGGGTGCATGGGGGAACCAGCCTGGGGCAGGGGGCTACCCAGGGGCTGCCTATCCTGGGGCCTATCCAGGACAGGCTCCTCCAGGGGCCTACCCAGGACAGGCTCCTCCAGGGGCCTATCCAGGACAGGCTCCTCCTAGTGCCTACCCCGGCCCAACTGCCCCTGGAGCTTATCCTGGCCCAACTGCCCCTGGAGCTTATCCTGGCTCAACTGCCCCTGGAGCCTTCCCAGGGCAACCTGGGGCACCTGGGGCCTACCCCAGTGCTCCTGGAGGCTATCCTGCTGCTGGCCCTTATGGTGTCCCCGCTGGACCACTGACGGTGCCCTATGACCTGCCCTTGCCTGGAGGAGTCATGCCCCGCATGCTGATCACAATCATGGGCACAGTGAAACCCAACGCAAACAGGATTGTTCTAGATTTCAGGAGAGGGAATGATGTTGCCTTCCACTTTAACCCCCGCTTCAATGAGAACAACAGAAGAGTCATTGTGTGTAACACGAAGCAGGACAATAACTGGGGAAAGGAAGAAAGACAGTCAGCCTTCCCCTTTGAGAGTGGAAAACCATTCAAAATACAAGTCCTGGTTGAAGCTGACCACTTCAAGGTTGCGGTCAACGATGCTCACCTACTGCAGTACAACCATCGGATGAAGAACCTCCGGGAAATCAGCCAACTGGGGATCAGTGGTGACATAACCCTCACCAGCGCTAACCACGCCATGATCGCGGCCGCTT
In the case of B2, the “Validation in vitro (coop over BMP2) C2C12” value [3] is reported as “−” and the “Validation in vitro (coop over BMP2) C3H10T1/2” value [2] is reported as “−”.

B3: 11 (nucleic acid, listed as Mus musculus)
chain: AATCTAGAATGCAGTGGGCCTCCGTCCTGCTGCTGGCTGGGCTCTGCTCACTTTCCCAGGGCCAGTATGATGAAGACTCTCACTGGTGGATCCAATACCTCCGAAACCAGCAGTCCACCTACTACGACCCCTATGACCCTTACCCCTATGAGCCCTCTGAGCCTTACCCCTATGGAGTGGAAGAAGGCCCAGCCTATGCCTATGGTGCACCACCTCCACCAGAGCCCCGTGATTGTCCCCAAGAATGCGACTGTCCCCCCAACTTCCCCACAGCCATGTACTGTGACAACCGCAACCTCAAGTACCTGCCTTTTGTGCCCTCCCGCATGAAGTACGTCTACTTCCAGAACAACCAGATCTCTGCCATCCAGGAAGGTGTCTTTGACAATGCCACTGGGCTCCTCTGGGTCGCTCTACATGGCAACCAGATTACCAGTGACAAGGTAGGCAGGAAAGTCTTCTCCAAGCTGAGGCACTTGGAGAGGCTGTACTTGGACCACAACAACCTGACCCGGATGCCCGGCCCGCTGCCCCGATCCCTGAGAGAGCTCCACCTGGACCACAACCAGATCTCACGGGTCCCCAACAATGCTTTGGAGGGCCTGGAGAACCTCACGGCCTTATATCTCCACCACAATGAGATCCAGGAAGTGGGGAGTTCCATGAGAGGCCTCCGGTCCCTGATCCTACTAGACCTGAGTTATAACCACCTTCGGAGGGTACCCGACGGTCTGCCCTCAGCCCTGGAGCAGCTGTACCTAGAACACAACAATGTCTACACCGTCCCTGACAGCTACTTCCGGGGGTCACCCAAGCTGCTGTACGTCCGGTTGTCTCACAACAGTCTCACTAACAACGGCCTTGCTACCAACACCTTCAACTCCAGCAGCCTTCTTGAGCTAGACTTGTCTTACAATCAGCTGCAGAAGATCCCTCCTGTCAACACCAACCTGGAGAATCTTTACCTCCAGGGCAACAGGATCAATGAGTTCTCCATCAGCAGCTTCTGCACGGTGGTGGACGTCATGAACTTCTCCAAGCTGCAGGTGCTACGCCTGGATGGGAACGAGATCAAGCGCAGCGCAATGCCGGTGGACGCCCCACTCTGCCTGCGCCTCGCCAACCTCATCGAGATCACTAGTAA
With B3 the “Validation in vitro (coop over BMP2) C2C12” value [3] was “−”, the “Validation in vitro (coop over BMP2) C3H10T1/2” value [2] was “−” and the “Validation in C2H10T1/2 (coop over BMP2)” value ([2]; alkaline phosphatase at 48 hours) was “− coop over BMP2”.

B4: 55 (nucleic acid, listed as Mus musculus)
chain: CGATCGATATGTCTTCAGGAAATGCAAAAATTGGGTATCCTGCTCCCAACTTCAAAGCTACAGCTGTTATGCCAGATGGACAATTCAAAGATATCAGCCTAAGTGAATACAAAGGAAAATATGTTGTGTTCTTCTTTTACCCTCTTGACTTTACTTTTGTGTGTCCCACGGAGATCATTGCTTTCAGTGATAGAGCCGATGAATTTAAGAAACTCAACTGCCAAGTGATTGGCGCTTCTGTGGATTCTCACTTCTGTCATCTGGCATGGATTAACACACCCAAGAAACAAGGAGGATTGGGACCCATGAACATTCCCTTAATATCAGATCCCAAGCGCACCATTGCTCAGGATTATGGAGTCTTAAAGGCTGATGAAGGTATCTCTTTCAGGGGCCTTTTTATTATTGATGATAAAGGTATCCTTCGACAGATAACAATAAACGATCTTCCCGTTGGCCGCTCTGTGGATGAGATTATACGACTAGTCCAGGCCTTCCAGTTCACTGACAAACATGGTGAAGTGTGTCCAGCTGGCTGGAAACCTGGCAGTGATACCATCAAGCCTGATGTCAATAAGAGCAAAGAGTATTTCTCTAAGCAGAAGGCGGCCGCTT
With B4 the “Validation in vitro (coop over BMP2) C2C12” value [3] was “−” and the “Validation in vitro (coop over BMP2) C3H10T1/2” value [2] was “−”.
